According to patent publication US20160280794A1:

Biological target: Ramos (human) (UniProt P11836)
Test: FACS binding; Ramos cells

Chain of Ramos (human) (P11836 whole entry): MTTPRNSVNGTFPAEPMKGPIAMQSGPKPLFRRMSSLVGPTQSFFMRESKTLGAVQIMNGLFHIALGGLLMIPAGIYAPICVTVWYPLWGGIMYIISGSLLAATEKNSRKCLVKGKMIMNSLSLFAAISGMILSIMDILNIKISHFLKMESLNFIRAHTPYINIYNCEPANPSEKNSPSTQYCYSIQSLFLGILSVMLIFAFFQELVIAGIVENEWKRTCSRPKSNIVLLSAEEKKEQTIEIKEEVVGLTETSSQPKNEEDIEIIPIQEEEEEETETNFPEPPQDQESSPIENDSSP

Substance | EC50
Rituxan-GlcNAc | 1.54 µg/mL
Rituxan-SCT | 1.2 µg/mL
